Experimental data: patent publication US20050129676A1 (ADHEREX TECHNOLOGIES, published 2005)
Each block holds one binder with its values, some of them ahead of it.

Assays:
[1] = target: T1, Fc-E-cadherin chimeric protein; assay: SPR (BIAcore X), Fc-E-cadherin captured on protein A, peptide as analyte, 3 mM CaCl2, fit to binding isotherm
T1 construct: It was captured on immobilised protein A on a CM5 chip (about 3500 RU)
Procedure: (§1) The binding of representative peptide modulating agents to Fc-E-cadherin chimeric protein in either the presence (3 mM CaCl₂) or absence of calcium was assessed using a BIAcore X™ Biosensor (Pharmacia Ltd., Sweden). Protein A was immobilized on the flow cells of a CM 5 sensor chip using a standard amine coupling method. The surfaces were activated with a 7 min injection of NHS/EDC, followed by a 7 min injection of protein A in 10 mM acetate pH 5.0 at a concentration of 50 ug/mL and blocked with a 7 min injection of 8 M ethanolamine, pH 8.2. […] Next, Fc-E-cadherin was injected over the protein A surface to be captured on the sensor chip.
(§2) To test compound binding to these surfaces, candidate modulating agents were injected in a three-fold dilution series over the Fc-E-cadherin-coated surfaces using six concentrations and each concentration was repeated twice.

[2] = target: T1, Fc-E-cadherin chimeric protein; assay: SPR (BIAcore X), Fc-E-cadherin captured on protein A, peptide as analyte, no calcium, fit to binding isotherm
Procedure: as §1, §2

[3] = target: T1, Fc-E-cadherin chimeric protein; assay: SPR (BIAcore X), Fc-E-cadherin captured on protein A, peptide as analyte, 3 mM CaCl2, fit to binding isotherm; with Ca^++ (3 mM CaCl2)
Procedure: as §1, §2

T1 sequence (P12830 155-709, change not shown): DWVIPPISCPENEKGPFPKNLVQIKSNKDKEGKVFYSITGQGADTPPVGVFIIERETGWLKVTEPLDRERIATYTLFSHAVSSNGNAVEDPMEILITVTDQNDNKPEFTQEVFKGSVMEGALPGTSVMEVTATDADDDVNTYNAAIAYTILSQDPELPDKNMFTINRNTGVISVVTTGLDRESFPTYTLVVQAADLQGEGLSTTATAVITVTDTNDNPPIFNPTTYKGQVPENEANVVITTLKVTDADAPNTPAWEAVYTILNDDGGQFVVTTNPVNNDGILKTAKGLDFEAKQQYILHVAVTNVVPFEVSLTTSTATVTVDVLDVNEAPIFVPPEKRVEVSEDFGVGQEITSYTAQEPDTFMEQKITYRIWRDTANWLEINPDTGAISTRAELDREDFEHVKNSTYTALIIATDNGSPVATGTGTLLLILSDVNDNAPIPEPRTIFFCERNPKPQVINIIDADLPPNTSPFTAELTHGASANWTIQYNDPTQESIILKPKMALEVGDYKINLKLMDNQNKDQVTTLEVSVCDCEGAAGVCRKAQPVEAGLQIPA

- Kd [1]: 543 µM
B1: H-PWVIPP-NH2 (peptide)
peptide: H-PWVIPP-NH2
notes: Linear synthetic peptide; analogue of H-DWVIPP-NH2

- Kd [1]: 42 µM
B2: H-AWVIPP-NH2 (peptide)
peptide: H-AWVIPP-NH2
notes: as for B1

- Kd [1]: 36.1 µM
- Kd [2]: 66 µM
B3: H-DWVIP-NH2 (peptide)
peptide: H-DWVIP-NH2
notes: Linear synthetic peptide

- Kd [3]: 21000 µM
B4: H-DWVAPP-NH2 (peptide)
peptide: H-DWVAPP-NH2
notes: as for B1

- Kd [1]: 17 µM
B5: H-DWVIAP-NH2 (peptide)
peptide: H-DWVIAP-NH2
notes: as for B1

- Kd [1]: 59 µM
B6: H-DWVIPA-NH2 (peptide)
peptide: H-DWVIPA-NH2
notes: as for B1

- Kd [1]: 34 µM
B7: H-DWVIPP-NH2 (peptide)
peptide: H-DWVIPP-NH2
notes: Linear synthetic peptide; also called ADH254
